In the supplement of paper PMC10065799, “High-throughput profiling of sequence recognition by tyrosine kinases and SH2 domains using bacterial peptide display” (eLife, 2023):

What was measured:
AncSZ = assay: phosphorylation enrichment, bacterial display (enrichment ratio); higher = better substrate or ligand; peptides without Tyr show the background
EPHB1 = EPHB1 (UniProt P54762); assay: as above
EPHB2 = EPHB2 (UniProt P29323); assay: as above
FGFR1 = FGFR1 (UniProt P11362); assay: as above
FGFR3 = FGFR3 (UniProt P22607); assay: as above
Chain of FGFR3 (P22607 whole entry, looked up): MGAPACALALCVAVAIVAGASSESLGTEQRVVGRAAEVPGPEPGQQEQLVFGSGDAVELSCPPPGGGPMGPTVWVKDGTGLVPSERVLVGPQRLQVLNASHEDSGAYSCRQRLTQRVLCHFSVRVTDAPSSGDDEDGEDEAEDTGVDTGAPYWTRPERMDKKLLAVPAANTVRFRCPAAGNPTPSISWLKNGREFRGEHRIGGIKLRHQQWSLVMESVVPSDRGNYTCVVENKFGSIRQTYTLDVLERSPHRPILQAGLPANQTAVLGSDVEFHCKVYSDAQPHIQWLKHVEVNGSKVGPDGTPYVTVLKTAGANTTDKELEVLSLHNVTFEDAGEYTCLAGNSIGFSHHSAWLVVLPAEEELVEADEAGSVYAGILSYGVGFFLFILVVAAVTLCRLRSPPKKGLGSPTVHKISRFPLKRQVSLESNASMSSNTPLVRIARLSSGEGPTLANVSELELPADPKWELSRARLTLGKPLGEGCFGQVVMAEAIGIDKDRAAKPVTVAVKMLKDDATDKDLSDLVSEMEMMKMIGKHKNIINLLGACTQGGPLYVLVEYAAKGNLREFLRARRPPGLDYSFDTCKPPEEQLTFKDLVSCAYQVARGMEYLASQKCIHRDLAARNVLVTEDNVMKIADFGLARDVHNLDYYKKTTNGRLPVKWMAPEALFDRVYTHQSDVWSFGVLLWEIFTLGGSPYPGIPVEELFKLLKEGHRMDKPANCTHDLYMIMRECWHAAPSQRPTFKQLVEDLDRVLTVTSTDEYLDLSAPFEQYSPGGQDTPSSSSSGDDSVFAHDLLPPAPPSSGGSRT

Fer (mouse) = assay: as above
Fes = Fes (UniProt P07332); assay: as above
Chain of Fes (P07332 whole entry, looked up): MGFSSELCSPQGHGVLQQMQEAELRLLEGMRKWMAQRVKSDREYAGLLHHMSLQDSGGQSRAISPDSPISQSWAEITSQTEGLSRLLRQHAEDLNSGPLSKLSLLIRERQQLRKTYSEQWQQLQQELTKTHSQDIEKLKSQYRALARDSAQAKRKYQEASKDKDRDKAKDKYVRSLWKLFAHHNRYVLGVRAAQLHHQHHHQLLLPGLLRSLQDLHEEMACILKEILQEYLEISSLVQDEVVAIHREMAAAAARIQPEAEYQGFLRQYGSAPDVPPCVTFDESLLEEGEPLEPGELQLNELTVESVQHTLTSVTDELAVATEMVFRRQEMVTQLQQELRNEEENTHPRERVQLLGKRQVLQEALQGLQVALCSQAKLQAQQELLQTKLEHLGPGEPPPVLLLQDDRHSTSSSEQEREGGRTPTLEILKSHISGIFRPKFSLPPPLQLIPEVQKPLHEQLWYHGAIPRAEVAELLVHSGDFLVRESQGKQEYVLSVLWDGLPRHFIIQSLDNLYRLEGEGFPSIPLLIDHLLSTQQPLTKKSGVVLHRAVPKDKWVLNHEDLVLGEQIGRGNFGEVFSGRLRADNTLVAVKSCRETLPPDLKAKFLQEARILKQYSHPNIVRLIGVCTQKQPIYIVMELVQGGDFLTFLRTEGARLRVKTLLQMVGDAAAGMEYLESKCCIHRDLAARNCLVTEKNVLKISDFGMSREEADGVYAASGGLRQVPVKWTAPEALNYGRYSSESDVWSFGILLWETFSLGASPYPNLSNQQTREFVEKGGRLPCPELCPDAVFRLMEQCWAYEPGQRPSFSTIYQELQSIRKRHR

Fyn = Fyn (UniProt P06241); assay: as above
Chain of Fyn (P06241 whole entry, looked up): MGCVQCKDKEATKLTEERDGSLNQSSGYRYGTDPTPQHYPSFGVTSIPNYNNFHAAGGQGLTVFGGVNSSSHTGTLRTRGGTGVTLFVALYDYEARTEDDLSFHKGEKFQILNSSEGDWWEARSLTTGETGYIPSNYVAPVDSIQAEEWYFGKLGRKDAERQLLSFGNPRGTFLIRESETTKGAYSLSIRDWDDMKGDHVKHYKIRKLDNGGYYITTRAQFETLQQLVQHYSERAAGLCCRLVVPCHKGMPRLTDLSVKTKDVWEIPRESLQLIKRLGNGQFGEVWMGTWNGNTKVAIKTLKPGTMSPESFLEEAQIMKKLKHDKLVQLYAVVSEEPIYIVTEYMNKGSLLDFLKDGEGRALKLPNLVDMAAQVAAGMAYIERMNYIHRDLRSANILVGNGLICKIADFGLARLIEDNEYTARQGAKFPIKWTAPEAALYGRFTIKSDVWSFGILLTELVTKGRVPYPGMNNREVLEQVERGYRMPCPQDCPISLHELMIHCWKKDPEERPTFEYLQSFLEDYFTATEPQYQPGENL

Hck = Hck (UniProt P08631); assay: as above
Chain of Hck (P08631 whole entry, looked up): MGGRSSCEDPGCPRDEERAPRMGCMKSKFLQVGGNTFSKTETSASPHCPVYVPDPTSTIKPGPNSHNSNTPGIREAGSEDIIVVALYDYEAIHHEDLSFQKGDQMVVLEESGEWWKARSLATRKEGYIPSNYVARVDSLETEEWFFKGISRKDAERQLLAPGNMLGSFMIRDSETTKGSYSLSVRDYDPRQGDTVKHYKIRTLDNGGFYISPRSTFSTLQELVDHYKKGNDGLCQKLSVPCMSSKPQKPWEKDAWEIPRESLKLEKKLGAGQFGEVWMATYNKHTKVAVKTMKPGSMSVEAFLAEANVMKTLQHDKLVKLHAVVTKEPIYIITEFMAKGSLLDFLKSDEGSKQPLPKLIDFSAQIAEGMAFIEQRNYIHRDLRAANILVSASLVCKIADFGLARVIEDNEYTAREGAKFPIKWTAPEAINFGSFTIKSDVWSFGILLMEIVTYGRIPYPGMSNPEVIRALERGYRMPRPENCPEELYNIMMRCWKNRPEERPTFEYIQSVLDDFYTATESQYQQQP

Jak2 = Jak2 (UniProt O60674); assay: as above
MERTK = MERTK (UniProt Q12866); assay: as above
c-Abl (mouse) = assay: as above
c-Src = assay: as above
Grb2 SH2 = Grb2 SH2 (UniProt P62993); assay: SH2 binding enrichment of the phosphorylated peptide, bacterial display (enrichment ratio); higher = better substrate or ligand; peptides without Tyr show the background
SHP2-C SH2 = assay: as above
c-Src SH2 = assay: as above
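For SH2 binding enrichment of the phosphorylated peptide, bacterial display in this document: peptide library displayed on the E. coli surface as eCPX fusions, selected cells deep-sequenced, score is each peptide's frequency after selection divided by its frequency in the input.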
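For phosphorylation enrichment, bacterial display in this document: 11-residue human phosphosite peptides and single-mutation variants displayed on the E. coli surface, counted by deep sequencing, each peptide's frequency after selection divided by its frequency in the unselected input library; frequency after pTyr selection over input frequency; kinase dosed for 20-30% of maximal phosphorylation in three min.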

Chain of FGFR1 (P11362 whole entry, looked up): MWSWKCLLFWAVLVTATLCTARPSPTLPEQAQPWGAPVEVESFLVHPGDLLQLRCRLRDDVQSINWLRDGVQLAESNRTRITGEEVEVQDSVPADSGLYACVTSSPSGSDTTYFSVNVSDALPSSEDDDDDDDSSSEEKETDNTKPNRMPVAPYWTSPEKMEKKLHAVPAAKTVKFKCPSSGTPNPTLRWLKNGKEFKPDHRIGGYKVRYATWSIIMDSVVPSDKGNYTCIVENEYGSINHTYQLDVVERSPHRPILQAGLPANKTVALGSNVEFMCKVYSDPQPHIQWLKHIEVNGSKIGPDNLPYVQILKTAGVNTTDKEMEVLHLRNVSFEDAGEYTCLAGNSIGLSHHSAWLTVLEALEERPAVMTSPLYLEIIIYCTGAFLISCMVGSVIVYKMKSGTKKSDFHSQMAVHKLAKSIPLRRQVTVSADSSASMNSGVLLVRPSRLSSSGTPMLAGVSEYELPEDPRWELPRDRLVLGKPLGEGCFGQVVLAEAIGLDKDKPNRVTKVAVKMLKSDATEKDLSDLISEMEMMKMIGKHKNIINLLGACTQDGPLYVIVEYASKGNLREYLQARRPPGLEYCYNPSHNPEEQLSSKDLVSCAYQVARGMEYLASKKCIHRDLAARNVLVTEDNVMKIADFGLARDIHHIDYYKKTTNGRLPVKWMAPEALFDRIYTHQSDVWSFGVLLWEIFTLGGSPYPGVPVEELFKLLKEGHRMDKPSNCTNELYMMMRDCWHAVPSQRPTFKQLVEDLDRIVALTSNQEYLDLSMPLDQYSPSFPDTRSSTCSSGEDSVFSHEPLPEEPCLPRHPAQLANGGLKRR
Chain of EPHB2 (P29323 whole entry, looked up): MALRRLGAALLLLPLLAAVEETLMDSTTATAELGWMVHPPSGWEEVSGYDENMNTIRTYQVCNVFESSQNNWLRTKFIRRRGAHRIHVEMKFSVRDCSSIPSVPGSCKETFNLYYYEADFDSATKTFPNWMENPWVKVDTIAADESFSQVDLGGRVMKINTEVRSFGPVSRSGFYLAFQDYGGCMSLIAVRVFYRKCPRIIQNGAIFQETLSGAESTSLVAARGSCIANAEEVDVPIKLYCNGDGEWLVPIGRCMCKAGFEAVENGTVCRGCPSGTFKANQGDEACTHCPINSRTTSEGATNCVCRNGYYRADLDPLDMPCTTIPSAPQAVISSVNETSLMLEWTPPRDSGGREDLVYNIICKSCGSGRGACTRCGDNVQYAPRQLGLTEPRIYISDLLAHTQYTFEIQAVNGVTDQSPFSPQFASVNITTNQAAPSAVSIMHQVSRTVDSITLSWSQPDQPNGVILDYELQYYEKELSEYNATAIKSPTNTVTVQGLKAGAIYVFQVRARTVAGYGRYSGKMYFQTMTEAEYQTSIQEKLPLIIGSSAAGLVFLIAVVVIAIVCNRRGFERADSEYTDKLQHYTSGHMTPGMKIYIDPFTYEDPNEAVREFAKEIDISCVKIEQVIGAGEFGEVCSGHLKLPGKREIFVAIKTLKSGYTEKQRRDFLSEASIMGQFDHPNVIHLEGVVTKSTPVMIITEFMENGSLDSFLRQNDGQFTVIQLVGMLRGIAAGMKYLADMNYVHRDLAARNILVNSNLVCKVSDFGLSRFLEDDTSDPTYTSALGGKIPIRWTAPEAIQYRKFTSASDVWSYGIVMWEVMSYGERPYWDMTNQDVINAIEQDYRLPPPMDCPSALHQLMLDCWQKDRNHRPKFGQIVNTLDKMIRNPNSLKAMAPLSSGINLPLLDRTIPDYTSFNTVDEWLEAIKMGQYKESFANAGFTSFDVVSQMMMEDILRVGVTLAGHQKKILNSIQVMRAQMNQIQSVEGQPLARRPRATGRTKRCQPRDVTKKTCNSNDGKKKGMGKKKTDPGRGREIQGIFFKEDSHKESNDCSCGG

Sequence | SH2 binding enrichment (Grb2 SH2) | SH2 binding enrichment (SHP2-C SH2) | SH2 binding enrichment (c-Src SH2) | phosphorylation enrichment (AncSZ) | phosphorylation enrichment (EPHB1) | phosphorylation enrichment (EPHB2) | phosphorylation enrichment (FGFR1) | phosphorylation enrichment (FGFR3) | phosphorylation enrichment (Fer (mouse)) | phosphorylation enrichment (Fes) | phosphorylation enrichment (Fyn) | phosphorylation enrichment (Hck) | phosphorylation enrichment (Jak2) | phosphorylation enrichment (MERTK) | phosphorylation enrichment (c-Abl (mouse)) | phosphorylation enrichment (c-Src)
DLDPNYVLSSR [CKM_Y125] | 0.765 | 0.75 | 0.528 | 1.17 | 0.523 | 0.636 | 0.465 | 0.714 | 0.394 | 1.01 | 0.416 | 0.473 | 0.759 | 0.464 | 0.528 | 0.534
KPGVNYFFRVS | 0.863 | 0.749 | 0.463 | 1.06 | 0.495 | 0.472 | 0.376 | 0.697 | 0.41 | 1.32 | 0.348 | 0.479 | 0.986 | 0.358 | 0.73 | 0.374
NGPDVYVLPVT [AATK_Y93_L97V] | 0.902 | 0.617 | 0.594 | 1.79 | 0.723 | 0.644 | 0.72 | 0.751 | 0.453 | 1.05 | 2.25 | 0.776 | 0.837 | 2.73 | 0.787 | 1.2
IITDYYVDMKF [MPP4_Y567_V562I] | 0.8 | 0.803 | 1.11 | 1.87 | 3.56 | 2.11 | 7.4 | 5.13 | 1.38 | 1.46 | 1.01 | 1.17 | 2.52 | 1.22 | 0.856 | 0.98

Continued, in another order:

SH2 binding enrichment (Grb2 SH2) | SH2 binding enrichment (SHP2-C SH2) | SH2 binding enrichment (c-Src SH2) | Sequence | phosphorylation enrichment (AncSZ) | phosphorylation enrichment (EPHB1) | phosphorylation enrichment (EPHB2) | phosphorylation enrichment (FGFR1) | phosphorylation enrichment (FGFR3) | phosphorylation enrichment (Fer (mouse)) | phosphorylation enrichment (Fes) | phosphorylation enrichment (Fyn) | phosphorylation enrichment (Hck) | phosphorylation enrichment (Jak2) | phosphorylation enrichment (MERTK) | phosphorylation enrichment (c-Abl (mouse)) | phosphorylation enrichment (c-Src)
0.802 | 0.66 | 0.457 | SVTCAYSPALN [TP53_Y126_T125A] | 1.26 | 0.726 | 0.577 | 0.557 | 0.757 | 0.64 | 1.2 | 0.616 | 0.608 | 0.98 | 0.525 | 0.79 | 0.583
0.874 | 0.64 | 0.515 | KDDEKYLDVIR [MTM1_Y260] | 0.961 | 0.461 | 0.49 | 0.453 | 0.663 | 0.405 | 0.971 | 0.433 | 0.501 | 0.987 | 0.434 | 0.689 | 0.409
0.92 | 0.803 | 0.58 | QNTGDDYDLYG [PTPN11_Y62_Y62D] | 2.09 | 0.985 | 1.63 | 0.82 | 1.51 | 0.674 | 1.56 | 1.35 | 1.86 | 1.9 | 0.697 | 0.841 | 1.99
0.9 | 0.741 | 0.492 | SEPDLYFDPRG [PKP1_Y160_C161Y_YF] | 2.86 | 13.1 | 11.4 | 9.25 | 6.9 | 0.841 | 1.14 | 4.59 | 9.33 | 3.41 | 4.69 | 2.71 | 4.46
